# Measured values published in article PMC5501724, “Structural Basis for Specific Interaction of TGFβ Signaling Regulators SARA/Endofin with HD-PTP” (Structure(London, England:1993), 2017).
# B1: endofin 22-mer peptide (first 22 residues of endofin) [human] / His6-HD-PTP_(Bro1-CC) (1-714), bacterially expressed [human] (parent complex)
# chain 1: MDSYFKAAVSDLDKLLDDFEQN
# chain 2: MEAVPRMPMIWLDLKEAGDFHFQPAVKKFVLKNYGENPEAYNEELKKLELLRQNAVRVPRDFEGCSVLRKYLGQLHYLQSRVPMGSGQEAAVPVTWTEIFSGKSVAHEDIKYEQACILYNLGALHSMLGAMDKRVSEEGMKVSCTHFQCAAGAFAYLREHFPQAYSVDMSRQILTLNVNLMLGQAQECLLEKSMLDNRKSFLVARISAQVVDYYKEACRALENPDTASLLGRIQKDWKKLVQMKIYYFAAVAHLHMGKQAEEQQKFGERVAYFQSALDKLNEAIKLAKGQPDTVQDALRFTMDVIGGKYNSAKKDNDFIYHEAVPALDTLQPVKGAPLVKPLPVNPTDPAVTGPDIFAKLVPMAAHEASSLYSEEKAKLLREMMAKIEDKNEVLDQFMDSMQLDPETVDNLDAYSHIPPQLMEKCAALSVRPDTVRNLVQSMQVLSGVFTDVEASLKDIRDLLEEDELLEQKFQEAVGQAGAISITSKAELAEVRREWAKYMEVHEKASFTNSELHRAMNLHVGNLRLLSGPLDQVRAALPTPALSPEDKAVLQNLKRILAKVQEMRDQRVSLEQQLRELIQKDDITASLVTTDHSEMKKLFEEQLKKYDQLKVYLEQNLAAQDRVLCALTEANVQYAAVRRVLSDLDQKWNSTLQTLVASYEAYEDLMKKSQEGRDFYADLESKVAALLERTQSTCQAREAARQQLLDRELKK
# B2: endofin 22-mer peptide (first 22 residues of endofin) [human] / His6-HD-PTP_(Bro1) (1-361) [human] (parent complex)
# chain 1: MDSYFKAAVSDLDKLLDDFEQN
# chain 2: MEAVPRMPMIWLDLKEAGDFHFQPAVKKFVLKNYGENPEAYNEELKKLELLRQNAVRVPRDFEGCSVLRKYLGQLHYLQSRVPMGSGQEAAVPVTWTEIFSGKSVAHEDIKYEQACILYNLGALHSMLGAMDKRVSEEGMKVSCTHFQCAAGAFAYLREHFPQAYSVDMSRQILTLNVNLMLGQAQECLLEKSMLDNRKSFLVARISAQVVDYYKEACRALENPDTASLLGRIQKDWKKLVQMKIYYFAAVAHLHMGKQAEEQQKFGERVAYFQSALDKLNEAIKLAKGQPDTVQDALRFTMDVIGGKYNSAKKDNDFIYHEAVPALDTLQPVKGAPLVKPLPVNPTDPAVTGPDIFAKLV
# B3: endofin_(1–84)-strep, in vitro translated [modified: 35S-methionine; 35S-methionine] [human] / His6-HD-PTP_(Bro1-CC) (1-714), bacterially expressed [human] (parent complex)
# chain 1: MDSYFKAAVSDLDKLLDDFEQNPDEQDYLQDVQNAYDSNHCSVSSELASSQRTSLLPKDQECVNSCASSETSYGTNESSLNEKT
# chain 2: B1 chain 2
# B4: HA-HD-PTP_(Bro1-CC) wild-type, expressed in cells [human] / endogenous endofin [human (endogenous in HEK293)] (parent complex)
# chain 1: B1 chain 2
# chain 2: MDSYFKAAVSDLDKLLDDFEQNPDEQDYLQDVQNAYDSNHCSVSSELASSQRTSLLPKDQECVNSCASSETSYGTNESSLNEKTLKGLTSIQNEKNVTGLDLLSSVDGGTSDEIQPLYMGRCSKPICDLISDMGNLVHATNSEEDIKKLLPDDFKSNADSLIGLDLSSVSDTPCVSSTDHDSDTVREQQNDISSELQNREIGGIKELGIKVDTTLSDSYNYSGTENLKDKKIFNQLESIVDFNMSSALTRQSSKMFHAKDKLQHKSQPCGLLKDVGLVKEEVDVAVITAAECLKEEGKTSALTCSLPKNEDLCLNDSNSRDENFKLPDFSFQEDKTVIKQSAQEDSKSLDLKDNDVIQDSSSALHVSSKDVPSSLSCLPASGSMCGSLIESKARGDFLPQHEHKDNIQDAVTIHEEIQNSVVLGGEPFKENDLLKQEKCKSILLQSLIEGMEDRKIDPDQTVIRAESLDGGDTSSTVVESQEGLSGTHVPESSDCCEGFINTFSSNDMDGQDLDYFNIDEGAKSGPLISDAELDAFLTEQYLQTTNIKSFEENVNDSKSQMNQIDMKGLDDGNINNIYFNAEAGAIGESHGINIICEIVDKQNTIENGLSLGEKSTIPVQQGLPTSKSEITNQLSVSDINSQSVGGARPKQLFSLPSRTRSSKDLNKPDVPDTIESEPSTADTVVPITCAIDSTADPQVSFNSNYIDIESNSEGGSSFVTANEDSVPENTCKEGLVLGQKQPTWVPDSEAPNCMNCQVKFTFTKRRHHCRACGKVFCGVCCNRKCKLQYLEKEARVCVVCYETISKAQAFERMMSPTGSNLKSNHSDECTTVQPPQENQTSSIPSPATLPVSALKQPGVEGLCSKEQKRVWFADGILPNGEVADTTKLSSGSKRCSEDFSPLSPDVPMTVNTVDHSHSTTVEKPNNETGDITRNEIIQSPISQVPSVEKLSMNTGNEGLPTSGSFTLDDDVFAETEEPSSPTGVLVNSNLPIASISDYRLLCDINKYVCNKISLLPNDEDSLPPLLVASGEKGSVPVVEEHPSHEQIILLLEGESFHPVTFVLNANLLVNVKFIFYSSDKYWYFSTNGLHGLGQAEIIILLLCLPNEDTIPKDIFRLFITIYKDALKGKYIENLDNITFTESFLSSKDHGGFLFITPTFQKLDDLSLPSNPFLCGILIQKLEIPWAKVFPMRLMLRLGAEYKAYPAPLTSIRGRKPLFGEIGHTIMNLLVDLRNYQYTLHNIDQLLIHMEMGKSCIKIPRKKYSDVMKVLNSSNEHVISIGASFSTEADSHLVCIQNDGIYETQANSATGHPRKVTGASFVVFNGALKTSSGFLAKSSIVEDGLMVQITPETMNGLRLALREQKDFKITCGKVDAVDLREYVDICWVDAEEKGNKGVISSVDGISLQGFPSEKIKLEADFETDEKIVKCTEVFYFLKDQDLSILSTSYQFAKEIAMACSAALCPHLKTLKSNGMNKIGLRVSIDTDMVEFQAGSEGQLLPQHYLNDLDSALIPVIHGGTSNSSLPLEIELVFFIIEHLF
# Variants of: B1
# Test: biosensor binding (sensogram); parent: 80; read off a plot
row,Variant,response [RU]
1,chain 1 L15P,~0

# Variants of: B2
# Test: biosensor binding (sensogram); parent: 110; read off a plot
row,Variant,response [RU]
1,chain 1 L15P,~0

# Variants of: B3
# Test: co-immunoprecipitation with anti-His6 antibody, quantitation of blots; three independent experiments (mean ± SD); parent: 100; read off a plot
row,Variant,percent of parent
1,chain 1 L15P,~6 % binding (rel. to WT)

# Variants of: B4
# Test: anti-HA immunoprecipitation from cells, anti-endofin immunoblot, quantitation; four independent experiments (mean ± SD); parent: 100; read off a plot
row,Variant,percent of parent
1,chain 1 T145K,~13 % of WT
2,chain 1 R198M,~59 % of WT
3,chain 1 H125A,~23 % of WT
4,chain 1 F62E,~30 % of WT
5,chain 1 L202D,~9.5 % of WT
6,chain 1 R69L,~68 % of WT
